Experimental data published in patent publication US7838495B2, “Compositions and methods of use of EPB1, and ErbB3 binding protein” (University of Maryland, Baltimore, priority 2007, dated 2010).

Assays:
C81 cells = assay: C81 xenografts in female athymic nude mice; format: in vivo
Protocol: FIG. 8A-C. Manipulation of EBP1 expression affects growth of prostate cancer cells in vivo. A. Ectopic expression of EBP1 reduces the growth of androgen independent cells in athymic female mice C81 vector or EBP1 transfected cells were injected subcutaneously into female athymic mice. Tumor development with time is shown (n=10 animals, 20 sites per group). B. Tumor volumes and growth rate. Tumor volumes were calculated as described in “Materials and Methods”. Each point represents the mean±SE (10 mice per group injected at 20 sites). C. Elimination of EBP1 expression enhances growth of androgen dependent LNCaP cells in vivo. A16 lentivirus control or C13 EBP1 shRNA transduced LNCaP cells were injected subcutaneously into female athymic mice. Tumor volumes were calculated as described in “Materials and Methods”. Each point represents the mean±SE (10 mice per group injected at 20 sites). * indicates p 0.04.
Western Blot Analysis. Western blot analysis was performed as previously described (19). The Ebp1 antibody was from Upstate (Lake Placid, N.Y.), the polyclonal antibody to actin from Sigma, the AKT and phospho AKT antibodies from Cell Signaling (Beverly, Mass.) and the AGR2 antibody was previously described (20) Cell Growth Assays Cell growth measurement in complete media was performed as described using a hemocytometer (21). For soft agar growth assays, increasing concentrations of cells (as indicated) were plated in 35 mm Petri dishes in 0.3% agar in complete media and colonies were counted after 10 days of incubation (21). For studies assessing the effect of DHT, HRG or chemotherapeutic agents on cell growth, cells (5×10^3) were plated in 96 well plates in complete media. After a 24-hour attachment period, the medium was replaced with steroid free medium [phenol red free RPMI 1640 and 5% charcoal stripped fetal bovine serum (Sigma)]. After 48 hours of steroid depletion, cells were refed with fresh steroid reduced medium with or without the indicated concentrations of DHT, bicalutamide (Casodex) (10 μM), HRG or the chemotherapeutic drugs at the concentrations indicated. Relative cell growth was determined using a Promega Proliferation Reagent (Promega, Madison Wis.) as per manufacturer's instructions with absorbance being read at […] using a Dynex plate reader. Luciferase Reporter Assays Cells (5×10^4) were plated in 12 well plates in complete media. When cells reached 50-60% confluence, they were transfected using the FuGENE®-6 Reagent (Roche, Indianapolis, Ind.) according to the manufacturer's instructions. Cells were transfected with 0.5 μg of an MMTV-luciferase reporter plasmid and 5 ng of a TK Renilla plasmid (Promega, Madison, Wis.) as an internal control. Complete medium was replaced 24 h after transfection with phenol red free RPMI 1640 with CSS with or without R1881 (10^−8M). Luciferase activity was determined using the Promega Dual luciferase assay kit as described by the manufacturer. In Vivo Studies in Athymic Mice Female nude athymic NCr-nu/nu mice, 4-6 weeks of age, were purchased from the National Cancer Institute (Frederick, Md.). Animals were housed in a pathogen free environment under controlled conditions of light and humidity and received food and water ad libitum. […] Tumors were measured with calipers. Tumor volumes were calculated by the formula width^2×length/2 […]. Mean tumor volume±S.D. were calculated and plotted against time. […] Statistical Analysis Results of growth assays were analyzed using a two-sided Students t-test. […]

AR-regulated genes = assay: Validation by real-time RT-PCR, Western blot and ELISA in LNCaP EPB1 transfectants; format: cell-based, human
Protocol: Real-Time Quantitative Reverse-Transcription PCR: The method of […] et al. (Nakanishi et al., 2003, Quantitative Analysis of Breast Cancer Resistance Protein and Cellular Resistance to Flavopiridol in Acute Leukemia Patients, Clin. Cancer Res., 9: 3320-3328) was used as previously described. […] Real-time quantitative RT-PCR was then performed on the LightCycler (Roche, Indianapolis, Ind.) platform to determine the relative mRNA levels of EPB1, AR, kallikrein-2 and POV-1. The following forward and reverse primers were selected using Primer Express software and synthesized by Core Laboratory of University of Maryland School of Medicine: EPB1, sense: [NT] ID NO: 4) and antisense: [NT] ID NO: 5), sense: [NT] ID NO: 6) and antisense: [NT] ID NO: 7), Kallikrein-2, sense: [NT] ID NO: 8) and antisense: [NT] ID NO: 9), POV-1, sense: [NT] ID NO: 10) and antisense: [NT] ID NO: 11), Actin, sense: [NT] ID NO: 12) and antisense […] ID NO: 13). […] Target mRNA values were normalized using actin mRNA as an internal control. The relative quantitation of gene expression was performed using the comparative ΔΔ Ct (threshold method) using β-actin as an internal control ([…] et al., 2002, The Nonsteroidal Anti-Inflammatory Drug Sulindac Causes Down-Regulation of Signal Transducer and Activator of Transcription 3 in Human Oral Squamous Cell Carcinoma Cells, Cancer Research, 62:1004-1007). Western Blot Analysis: Briefly, total cell extracts were prepared by direct lysis of cells with buffer containing 50 mM Tris-HCl (pH 7.4), 1 mM EDTA, 250 mM NaCl, 1% Triton® X-100, 0.5 mM dithiothreitol (DTT) and 1 mM phenylmethylsulfonyl (PMSF). Protein concentrations were measured using a detergent compatible kit (BioRad, Hercules, Calif.). Proteins were resolved by SDS-PAGE and analyzed by Western blotting as described (Xia et al., 2001, Analysis of the Expression Pattern of EPB1, an ErbB-3-Binding Protein, Biochem. Biophys. Res. Commun., 289:240-244). The AR antibody was from Santa Cruz Biotechnology (Santa Cruz, Calif.), the EPB1 antibody from Upstate (Lake Placid, N.Y.), the polyclonal antibody to actin from Sigma (St. Louis, Mo.), and the POV-1 antibody was a gift. Measurement of PSA levels: Serum PSA levels were determined using a PSA ELISA kit from DSL, Inc (Webster, Tex.). […] Following a 1 h incubation and extensive washing of the plate, the wells were treated for 30 min with a second anti-PSA antibody labeled with horseradish peroxidase. After washing, the wells were treated with a tetramethylbendizine substrate for 10 min, and absorbance was read at 450 nm. The results of the microarray analysis were validated using real-time quantitative reverse-transcription PCR, Western blot, and ELISA methods. […] PSA secretion in the conditioned media of EPB1 and vector control cells was assessed by ELISA.

B1: EBP1: ErbB3 binding protein (SEQ ID NO: 2), AR corepressor, here ectopically expressed in cancer cells by stable transfection of an expression plasmid (protein, listed as Homo sapiens)
chain: MSGEDEQQEQTIAEDLVVTKYKMGGDIANRVLRSLVEASSSGVSVLSLCEKGDAMIMEETGKIFKKEKEMKKGIAFPTSISVNNCVCHFSPLKSDQDYILKEGDLVKIDLGVHVDGFIANVAHTFVVDVAQGTQVTGRKADVIKAAHLCAEAALRLVKPGNQNTQVTEAWNKVAHSFNCTPIEGMLSHQLKQHVIDGEKTIIQNPTDQQKKDHEKAEFEVHEVYAVDVLVSSGEGKAKDAGQRTTIYKRDPSKQYGLKMKTSRAFFSEVERRFDAMPFTLRAFEDEKKARMGVVECAKHELLQPFNVLYEKEGEFVAQFKFTVLLMPNGPMRITSGPFEPDLYKSEMEVQDAELKALLQSSASRKTQKKKKKKASKTAENATSGETLEENEAGD
modifications: FLAG tag
- sites that developed tumors at the end of both studies (C81 cells; C81 EBP1 transfectants (vector 25/26), p=0.00001): 10/26
- inoculation sites with tumors on Day 28 post transplantation (C81 cells; C81 EBP1 transfectants (vector controls 24/26)): 1/26
- day on which the first tumor was observed (C81 cells; C81 EBP1 transfectants s.c. in female nude mice (vector day 8)): 20 days
- average tumor volume at the end of the first study (C81 cells; C81 EBP1 transfectants, 6 sites per group, Mean+S.E. (vector 998±206), p=0.01): 104±70 mm^3
- average tumor volume, second experiment (C81 cells; C81 EBP1 transfectants, 20 sites per group (vector 561±47), p=0.0001, in mm³ (unit assumed)): 206±54
- POV-1 mRNA decrease (AR-regulated genes; LNCaP EPB1 transfectants): about two-fold
- POV-1 protein decrease (AR-regulated genes; LNCaP EPB1 transfectants): about two-fold
- kallikrein-2 mRNA expression decrease (AR-regulated genes; LNCaP EPB1 transfectants): approximately 40%
- AR protein decrease (AR-regulated genes; LNCaP EPB1 transfectants, Western blot): more than five-fold
- AR mRNA down-regulation (AR-regulated genes; LNCaP EPB1 transfectants, real-time PCR): more than 2 fold
- secreted PSA protein downregulation (AR-regulated genes; conditioned media of LNCaP EPB1 transfectants vs controls, ELISA): 10 fold
